This passage reports Kd and Bmax results from patent US20240091321A1.

One assay concerns the target Insulin Receptor. Description: SPR; data not shown. (SPR reads the build-up and loss of mass on a sensor chip optically.)
Assay [1] deals with CI-MPR receptor. The experiment in a line: CIMPR binding assay, PPT1 conditioned media, curves starting at 25 nM, bound PPT1 activity; the table prints no units, units of the axes.
Assay [2] deals with CI-MPR receptor. The experiment in a line: CIMPR binding assay, PPT1 conditioned media, dilution starting at 50 nM, bound PPT1 activity; the table prints no units, units of the axes.

The Kd is a measure of binding affinity in units of concentration. Higher therefore signals weaker binding.

For “Insulin (from UniProt P01308 25-54; P01308 90-110) (ligand)”, in the assay with Insulin Receptor, the Kd worked out at 8 nM.

In the assay with CI-MPR receptor [1], PPT1 control (enzyme) yielded a Bmax of 54.5 nmol/mL/h and a Kd of 2.71 nM. In the assay with CI-MPR receptor [2], this substance had a Bmax of 54.4 nmol/mL/h and a Kd of 2.7 nM.
